Tests used:
Experiment in all cases: SPR
CD40 = CD40 (Homo sapiens (assumed), UniProt P25942)
IL36R = IL36R (Homo sapiens (assumed), UniProt Q9HB29)
IL17A = IL17A (Homo sapiens (assumed), UniProt Q16552)
Chain of IL17A (Q16552 24-155): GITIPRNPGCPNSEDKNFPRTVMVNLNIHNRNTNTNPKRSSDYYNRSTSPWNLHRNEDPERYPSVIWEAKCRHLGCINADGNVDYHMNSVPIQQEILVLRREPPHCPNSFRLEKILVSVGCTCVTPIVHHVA

Chain of IL36R (Q9HB29 20-335): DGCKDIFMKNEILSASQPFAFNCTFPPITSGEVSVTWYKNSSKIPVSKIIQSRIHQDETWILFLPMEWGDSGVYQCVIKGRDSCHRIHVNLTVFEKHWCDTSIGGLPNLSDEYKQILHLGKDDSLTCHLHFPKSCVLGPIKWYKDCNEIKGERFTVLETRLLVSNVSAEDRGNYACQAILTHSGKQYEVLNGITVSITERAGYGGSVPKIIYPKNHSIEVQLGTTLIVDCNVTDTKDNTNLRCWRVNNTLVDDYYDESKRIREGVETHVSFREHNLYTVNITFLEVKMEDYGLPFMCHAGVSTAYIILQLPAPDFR
Chain of CD40 (P25942 21-193): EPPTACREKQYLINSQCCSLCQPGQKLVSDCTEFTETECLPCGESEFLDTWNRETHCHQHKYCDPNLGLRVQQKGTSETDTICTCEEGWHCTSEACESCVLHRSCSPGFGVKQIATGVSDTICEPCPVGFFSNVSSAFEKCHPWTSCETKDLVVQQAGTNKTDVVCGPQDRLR

B1: Ravagalimab (Fab, V domains shown)
VH: EVQLVESGGGLVKPGGSLRLSCAASGFTFSDYGMNWVRQAPGKGLEWIAYISSGRGNIYYADTVKGRFTISRDNAKNSLYLQMNSLRAEDTAVYYCARSWGYFDVWGQGTTVTVSS
VL: DIVMTQSPDSLAVSLGERATINCKSSQSLLNRGNQKNYLTWFQQKPGQPPKLLIYWASTRESGVPDRFSGSGSGTDFTLTISSLQAEDVAVYYCQNDYTYPLTFGQGTKLEIK
binding result (CD40): binds

B2: Spesolimab (Fab, V domains shown)
VH: QVQLVQSGAEVKKPGASVKVSCKASGYSFTSSWIHWVKQAPGQGLEWMGEINPGNVRTNYNENFRNKVTMTVDTSISTAYMELSRLRSDDTAVYYCTVVFYGEPYFPYWGQGTLVTVSS
VL: QIVLTQSPGTLSLSPGERATMTCTASSSVSSSYFHWYQQKPGQAPRLWIYRTSRLASGVPDRFSGSGSGTDFTLTISRLEPEDAATYYCHQFHRSPLTFGAGTKLEIK
binding result (IL36R): binds

B3: Afasevikumab (Fab, V domains shown)
VH: EVQLVESGGGLVQPGRSLRLSCAASGFTFDDYAMHWVRQAPGKGLEWVSGINWSSGGIGYADSVKGRFTISRDNAKNSLYLQMNSLRAEDTALYYCARDIGGFGEFYWNFGLWGRGTLVTVSS
VL: not shown
binding result (IL17A): binds

Reference: paper doi:10.1101/2023.12.08.570889 (bioRxiv, 2023)
